Test results: the supplement of paper PMC9732359
± gives the uncertainty stated by the source.

Test: protein stability index of a GFP-peptide fusion (yeast GPS) (PSI 1-4); higher = more stable; sorted into four equal gates, so the index is relative within each strain
Summary of the method: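 Plasmids in a pooled yeast library fused tiled 17-residue yeast protein peptides downstream of GFP and also expressed Cherry. Mid-log cultures grown without leucine were sorted into four equal gates by GFP/Cherry fluorescence ratio. Each gate's plasmids were PCR-amplified and Illumina-sequenced, and reads were matched to strains by barcodes. The protein stability index is derived by multiplying each gate's read frequency by its gate number and summing the results.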

Sequence | protein stability index (doa10∆) | protein stability index (pdr5∆) | protein stability index (san1∆) | protein stability index (ubr1∆)
ELHKEGTISKLENKENG [SMC2] | 2.01 ± 0.12 | 2.61 ± 0.097 | 1.4 ± 0.076 | 1.62 ± 0.075
IKPKIALQDKEITSVLS [SNF12] | 2.31 ± 0.082 | 2.39 ± 0.1 | 2.36 ± 0.16 | 2.28 ± 0.093
FAGVASKKVTSGVPRLK [RPO21] | 3.03 ± 0.2 | 3.08 ± 0.2 |  | 
EKKQKTESQDVETRVQN [DPB4] | 3.52 ± 0.11 | 3.38 ± 0.072 | 3.35 ± 0.048 | 3.3 ± 0.056
ELGEQKCQELVTNIRRI [RRP46] | 2.09 ± 0.072 | 1.81 ± 0.056 | 1.55 ± 0.15 | 1.98 ± 0.071
RTKFVRSLVREIAGLSP [RPL36A] | 2.59 ± 0.19 | 2.71 ± 0.19 | 2.85 ± 0.086 | 2.92 ± 0.09
IPLNRLSLDSDVKFPSN [SMC3] | 1.69 ± 0.059 | 1.92 ± 0.064 | 2.05 ± 0.11 | 1.99 ± 0.054
ATTGGLFGSKPQGSTTN [YGR119C/NUP57] | 3.34 ± 0.1 | 3.37 ± 0.1 | 3.39 ± 0.12 | 3.55 ± 0.18
LLSLINSTHLLPLQPIE [SNF12] | 2.34 ± 0.053 | 2.46 ± 0.05 | 3.04 ± 0.052 | 2.4 ± 0.04
KNMFEKKASKVTVDADI [ISW2] | 2.44 ± 0.063 | 2.87 ± 0.059 | 2.83 ± 0.055 | 2.77 ± 0.054
AESMCQELELPGEFVTA [SNF5] | 2.4 ± 0.061 | 2.53 ± 0.057 | 2.62 ± 0.048 | 2.46 ± 0.081
MLGEDEGNTVLEKGNNP [SWP82] | 3.67 ± 0.13 | 3.22 ± 0.19 | 3.11 ± 0.099 | 3.69 ± 0.16
KKINAKEKLIGWYHSGP [RPN8] | 2.91 ± 0.085 | 3.13 ± 0.096 | 3.33 ± 0.052 | 3.13 ± 0.06
QFKTTIKDTANDNDITV [UBP6] | 2.45 ± 0.11 | 2.09 ± 0.074 | 2.19 ± 0.084 | 1.67 ± 0.041
QLTEFWTELCQREFKEI [NNF1] | 2.98 ± 0.21 | 3.41 ± 0.16 | 3.06 ± 0.07 | 3.09 ± 0.069
LLNRIPRMYHIGLRQFQ [POP1] | 2.09 ± 0.099 | 1.51 ± 0.077 | 1.72 ± 0.18 | 1.3 ± 0.11
NIALVSKLRNNIRSQLL [SRP54] | 2.13 ± 0.069 | 2.56 ± 0.058 | 2.5 ± 0.053 | 2.61 ± 0.065
LNECLKTIQINNEKVVQ [YML031W/NDC1] | 1.96 ± 0.12 | 2.27 ± 0.073 | 1.29 ± 0.16 | 1.11 ± 0.1
IQKGKFTLLDFKKQMQT [SRP54] | 1.27 ± 0.13 | 1.85 ± 0.22 | 1.07 ± 0.21 | 1.7 ± 0.29
QGRDTSKLPDPERWLPL [SRP72] | 3.33 ± 0.16 | 2.86 ± 0.21 | 3.31 ± 0.13 | 2.93 ± 0.17
SGEDVIIGKTTPISPDE [RPB2] | 3.26 ± 0.21 |  | 3.49 ± 0.083 | 3.35 ± 0.085
NTSAATVHTATSSSIIL [SSN2] | 2.41 ± 0.053 | 2.761 ± 0.026 | 2.61 ± 0.045 | 2.65 ± 0.038
DIQLKNLFPLKPKMLPI [SRP68] | 2.78 ± 0.077 | 2.66 ± 0.057 | 2.4 ± 0.058 | 2.46 ± 0.073
RFVLSDDYSNLKREERQ [SMC3] | 2.27 ± 0.085 | 2.65 ± 0.081 | 2.43 ± 0.093 | 2.7 ± 0.059
LNVQVWHIEETGEWFSS [ITC1] | 1.83 ± 0.051 | 2.03 ± 0.05 | 2.39 ± 0.059 | 2.41 ± 0.043
PITGASLDLIKERRSLK [RPL24A] | 3.04 ± 0.097 | 3.07 ± 0.078 | 3.02 ± 0.067 | 2.98 ± 0.06
TTTVLKRYANHTQDIIG [RET1] | 2.04 ± 0.083 | 2.75 ± 0.093 | 3.02 ± 0.051 | 2.9 ± 0.055

Sequence | protein stability index (doa10∆) | protein stability index (pdr5∆) | protein stability index (san1∆) | protein stability index (ubr1∆)
DKNKLLLLAAQIVSYCS [SSN2] | 1.97 ± 0.039 | 1.66 ± 0.038 | 2.05 ± 0.06 | 1.74 ± 0.037
ELMDRTGLKLYSRITLI [RPP1] | 1.57 ± 0.11 | 2.66 ± 0.1 | 1.69 ± 0.1 | 2.43 ± 0.12
YDNGQVFPSSILDITDE [RPP0] | 1.91 ± 0.048 | 1.79 ± 0.077 | 2.42 ± 0.093 | 1.32 ± 0.073
EHKTPELISFKERTKSL [YIL149C/MLP2] | 2.85 ± 0.066 | 2.95 ± 0.076 | 2.93 ± 0.076 | 3.22 ± 0.079
NINFASGVKNDILQSLS [CDC53] | 2.11 ± 0.066 | 2.39 ± 0.045 | 1.65 ± 0.053 | 1.66 ± 0.045
GCYFEEKRYDDKLLDFI [CSN12] | 3.34 ± 0.06 | 2.92 ± 0.098 | 3.04 ± 0.066 | 3.04 ± 0.077
QCCEFMTMLTPNYLHLV [YML103C/NUP188] | 2.23 ± 0.05 | 1.77 ± 0.045 | 1.66 ± 0.084 | 1.68 ± 0.041
AARKAANKEKRAIILER [RPL7A] | 1.19 ± 0.051 | 1.37 ± 0.058 | 1.14 ± 0.078 | 1.27 ± 0.14
TYNEDIPVEILVRRLSD [PRE9] | 3.06 ± 0.079 | 2.84 ± 0.077 | 3.14 ± 0.064 | 2.85 ± 0.059
NSGNSNSNSNQQSTDAD [RPT1] | 2.59 ± 0.081 | 2.48 ± 0.081 | 2.48 ± 0.09 | 2.64 ± 0.052
ESKLIPQENDLESKMSE [SMC3] | 2.81 ± 0.065 | 3.05 ± 0.065 | 3.15 ± 0.059 | 3.01 ± 0.054
TLVAQNLKQANNVAYGK [SMC4] | 2.8 ± 0.1 | 2.92 ± 0.089 | 2.87 ± 0.062 | 3 ± 0.067
MSFIFPSYAERQSSDES [YML031W/NDC1] | 2.58 ± 0.051 | 2.04 ± 0.048 | 2.74 ± 0.066 | 2.5 ± 0.046
LSEEKEVIFTDVLKSQA [MCD1] | 2.92 ± 0.2 | 3.09 ± 0.23 | 3.13 ± 0.12 | 2.77 ± 0.17
SQDTKVICSVTGPIEPK [RRP46] | 1.68 ± 0.07 | 1.72 ± 0.072 | 1.94 ± 0.11 | 2.12 ± 0.076
ITYALSGYVRSRGESDD [RPS21B] | 1.74 ± 0.075 | 2.81 ± 0.11 | 2.44 ± 0.092 | 2.84 ± 0.058
RAFLIEEQKIVKKVVKE [RPL34A] | 3.25 ± 0.099 | 3.02 ± 0.13 | 2.99 ± 0.12 | 3.26 ± 0.091
LPSDRCSKAMGDLASLV [RPP1] |  |  | 3.15 ± 0.12 | 
GSYNAFEPASRLQGIKL [COR1] | 2.95 ± 0.053 | 3.16 ± 0.068 | 3.15 ± 0.063 | 2.99 ± 0.073
GFSTGIGDTIADGPTMR [RPO21] | 2.3 ± 0.13 | 3.15 ± 0.17 | 3.03 ± 0.094 | 2.99 ± 0.15
SVFNAELLKLLNDEYNY [YCS4] | 1.76 ± 0.053 | 2.31 ± 0.062 | 1.95 ± 0.095 | 2.47 ± 0.04
ITLIDSASLHLNYGVYL [RET1] | 2.4 ± 0.076 | 2.27 ± 0.081 | 2.83 ± 0.097 | 2.4 ± 0.063
TTSERVSNENKKNIDYQ [RRI1] | 2.98 ± 0.083 | 3.03 ± 0.09 | 3.13 ± 0.085 | 3.05 ± 0.18
LSAPLSKELRAQYGIKA [RPL26A] | 2.91 ± 0.14 | 2.31 ± 0.12 | 3.48 ± 0.12 | 1.87 ± 0.15
KDLQWLEFARITPMNDD [SIN4] | 2.94 ± 0.1 | 3.19 ± 0.088 | 3.14 ± 0.055 | 3.33 ± 0.097
MTDIWNTLIPESSLTIS [ECM29] | 2.22 ± 0.064 | 2.46 ± 0.054 | 2.14 ± 0.1 | 2.87 ± 0.058
GRTGNGNMGITTEMLDK [MED6] | 3.23 ± 0.069 | 3.23 ± 0.062 | 3.28 ± 0.047 | 3.27 ± 0.04
